The data set concerns the molecule itself. The experiment in a line: Western blot of transfected HEK293 cells. Here is the method: After 48 hours, the cells were lysed. The C-terminal truncated version containing a flag tag in the cells was enriched by using flag antibody (F1804. Sigma)-coupled magnetic beads, and then the presence of the N-terminal truncated version interacting with the C-terminal truncated version was detected by western blot using an HA antibody (AE036, ABclonal).

B1: N-terminal truncated version (aa 1-1347) of ABCA4 with an HA tag at its C-terminus (other)
chain: MGFVRQIQLLLWKNWTLRKRQKIRFVVELVWPLSLFLVLIWLRNANPLYSHHECHFPNKAMPSAGMLPWLQGIFCNVNNPCFQSPTPGESPGIVSNYNNSILARVYRDFQELLMNAPESQHLGRIWTELHILSQFMDTLRTHPERIAGRGIRIRDILKDEETLTLFLIKNIGLSDSVVYLLINSQVRPEQFAHGVPDLALKDIACSEALLERFIIFSQRRGAKTVRYALCSLSQGTLQWIEDTLYANVDFFKLFRVLPTLLDSRSQGINLRSWGGILSDMSPRIQEFIHRPSMQDLLWVTRPLMQNGGPETFTKLMGILSDLLCGYPEGGGSRVLSFNWYEDNNYKAFLGIDSTRKDPIYSYDRRTTSFCNALIQSLESNPLTKIAWRAAKPLLMGKILYTPDSPAARRILKNANSTFEELEHVRKLVKAWEEVGPQIWYFFDNSTQMNMIRDTLGNPTVKDFLNRQLGEEGITAEAILNFLYKGPRESQADDMANFDWRDIFNITDRTLRLVNQYLECLVLDKFESYNDETQLTQRALSLLEENMFWAGVVFPDMYPWTSSLPPHVKYKIRMDIDVVEKTNKIKDRYWDSGPRADPVEDFRYIWGGFAYLQDMVEQGITRSQVQAEAPVGIYLQQMPYPCFVDDSFMIILNRCFPIFMVLAWIYSVSMTVKSIVLEKELRLKETLKNQGVSNAVIWCTWFLDSFSIMSMSIFLLTIFIMHGRILHYSDPFILFLFLLAFSTATIMLCFLLSTFFSKASLAAACSGVIYFTLYLPHILCFAWQDRMTAELKKAVSLLSPVAFGFGTEYLVRFEEQGLGLQWSNIGNSPTEGDEFSFLLSMQMMLLDAAVYGLLAWYLDQVFPGDYGTPLPWYFLLQESYWLGGEGCSTREERALEKTEPLTEETEDPEHPEGIHDSFFEREHPGWVPGVCVKNLVKIFEPCGRPAVDRLNITFYENQITAFLGHNGAGKTTTLSILTGLLPPTSGTVLVGGRDIETSLDAVRQSLGMCPQHNILFHHLTVAEHMLFYAQLKGKSQEEAQLEMEAMLEDTGLHHKRNEEAQDLSGGMQRKLSVAIAFVGDAKVVILDEPTSGVDPYSRRSIWDLLLKYRSGRTIIMSTHHMDEADLLGDRIAIIAQGRLYCSGTPLFLKNCFGTGLYLTLVRKMKNIQSQRKGSEGTCSCSSKGFSTTCPAHVDDLTPEQVLDGDVNELMDVVLHHVPEAKLVECIGQELIFLLPNKNFKHRAYASLFRELEETLADLGLSSFGISDTPLEEIFLKVTEDSDSGPLFAGGAQQKRENVNPRHPCLGPREKAGQTPQDSNVCSPGAPAAHPEGQPPPEPECPGPQLNTG
notes: Expressed in HEK293 cells from a codon-optimized CDS; tested in cell lysate; also called N1347; not shown: hemagglutinin (HA) tag linked to the C-terminus
For the protein B1, the binding result is “binds”.

B2: C-terminal truncated version (aa 1348-2273) of ABCA4 with a Flag tag at its C-terminus (other)
chain: TQLVLQHVQALLVKRFQHTIRSHKDFLAQIVLPATFVFLALMLSIVIPPFGEYPALTLHPWIYGQQYTFFSMDEPGSEQFTVLADVLLNKPGFGNRCLKEGWLPEYPCGNSTPWKTPSVSPNITQLFQKQKWTQVNPSPSCRCSTREKLTMLPECPEGAGGLPPPQRTQRSTEILQDLTDRNISDFLVKTYPALIRSSLKSKFWVNEQRYGGISIGGKLPVVPITGEALVGFLSDLGRIMNVSGGPITREASKEIPDFLKHLETEDNIKVWFNNKGWHALVSFLNVAHNAILRASLPKDRSPEEYGITVISQPLNLTKEQLSEITVLTTSVDAVVAICVIFSMSFVPASFVLYLIQERVNKSKHLQFISGVSPTTYWVTNFLWDIMNYSVSAGLVVGIFIGFQKKAYTSPENLPALVALLLLYGWAVIPMMYPASFLFDVPSTAYVALSCANLFIGINSSAITFILELFENNRTLLRFNAVLRKLLIVFPHFCLGRGLIDLALSQAVTDVYARFGEEHSANPFHWDLIGKNLFAMVVEGVVYFLLTLLVQRHFFLSQWIAEPTKEPIVDEDDDVAEERQRIITGGNKTDILRLHELTKIYPGTSSPAVDRLCVGVRPGECFGLLGVNGAGKTTTFKMLTGDTTVTSGDATVAGKSILTNISEVHQNMGYCPQFDAIDELLTGREHLYLYARLRGVPAEEIEKVANWSIKSLGLTVYADCLAGTYSGGNKRKLSTAIALIGCPPLVLLDEPTTGMDPQARRMLWNVIVSIIREGRAVVLTSHSMEECEALCTRLAIMVKGAFRCMGTIQHLKSKFGDGYIVTMKIKSPKDDLLPDLNPVEQFFQGNFPGSVQRERHYNMLQFQVSSSSLARIFQLLLSHKDSLLIEEYSVTQTTLDQVFVNFAKQQTESHDLPLHPRAAGASRQAQD
notes: Expressed in HEK293 cells; captured on flag antibody-coupled magnetic beads; not shown: Flag tag linked to the C-terminus
With B2, the binding result is on record as “binds”.

These data come from US20240425876A1 (CHIGENOVO, published 2024).
